# Test results: the supplement of paper PMC9170038
# Tested on: MS2 coat protein
# Assay: apparent KD of MS2 coat protein; higher = weaker reporter binding
# Conditions: Eterna round: R107; input ligand: arginine 13.2 mM
# Procedure, shortened: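 Designed RNA switches were transcribed on-chip from Illumina sequencing clusters and titrated with SNAP-549-labelled MS2 coat protein in twofold steps from 0.7 or 1.5 nM up to 3 µM. Each step lasted 0.8–1.5 h at first and 10–20 min by the end, in 100 mM Tris-HCl pH 7.5, 80 mM KCl and 4 mM MgCl2, without or with constant ligand. Apparent KD is the median, for each design, of fits to normalised cluster binding curves.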
row,Sequence,apparent KD of MS2 coat protein [nM]
1,AUUCAUGGAAACAUGACAUAGGGAUCUAUCCGAGGACCGGUACGGCCGCCACUCGCGUGGAGGCACAUGAGGAUCACCCAUGUUA [SS Tryp A #5],71.2
2,CACGGAUGAGUGGAUCACCCUCGUAAUAACCGAGGACCGGUACGGCCGCCACUCGAAAACCGUGACCUGUACGAAAAGUGCAGGA,56.7

# Same assay, conditions: Eterna round: R107; input ligand: none
row,Sequence,apparent KD of MS2 coat protein [nM]
1,CUGCCAUGCAGAGAUACCAGUGAGCUCAUAACAUGAGGAUCACCCAUGUACGCCGCAGAUCACCCUUGGCAGCUCUGCAUGGCAG [!#*@)],9.18
2,UAUACAUGAGGAUCACCCAUGUACCAUGAAGGAGCGCAGAAAUCUGCAGGUAGGUCGCAUGGGUUAUGACCUCGGCAUAAUAACG [Enreusus],27.8
3,UGACCCUUCACGGCCGCCACUCAUUUUAAGUAGAGAGAGUACAUGAGGAUCACCCAUGUGAGAGAGAGGACCGGGUGAGAUGUUG [ss-trypB-0(N)],16.3
4,GGCCGUGCGAGCGCUCGCGUGGCCGCGGAUACCAGCGAGGUCCAUCGCCCUUGGCAGCCGAACAUGAGGAUCACCCAUGUCGGUA [#1 Same State - Theophylline A Attempt #14 (HarryS)],11
5,ACAUGAGGAUCACCCAUGUGGCGACUUGAUACCAGACCCGCACUAGUCCCUUGGCAGCAACUACGUGAGGGUCACCCAUGUGAAG [vndullin],20
6,GGGUACAUCGCGGCCGCCACUUAUGUAAAUACAUGAGGAUCACCCAUGUCGAUGGAGACAUCGGUAAGGACCGGGUGAUGUACCG,155
7,CGGUAGGUAGGUCGAUAUCUACCCGUAGAAGGAGCGUAAGAAAAUACAGGUAGGUCGCUACGGUACAUGAGCAUCAGCCAUGUCC [SSArg A #13 Alt-Ms2],11.7
8,GUCACCAGGAGAAGGAGCGUGAAGACAUGAGGAUCACCCAUGUAGAGGCGCCGACGGCGUUCGCAGGUAGGUCGCUCCUGGUGAC [#1 Same State - Arginine B Attempt #17 (HarryS)],20.5
9,ACUCGGUGUUUGUUGCUCCGAGUGUAUGAUACCAGUCAGUUUUAUGGCCCUUGGCAGCAUAGGACAUGAGGAUCACCCAUGUGUU [#01 SameState-TheophyllineA],44.9
10,AAUUGGGUUGGUGAGGUGGUUGGAGGCGAUACCAGCGUGGAAACACGCCCUUGGCAGCGCCAGGACAUGAGGAUCACCCAUGUUA [Brno],131
11,CACGGAUGAGUGGAUCACCCUCGUAAUAACCGAGGACCGGUACGGCCGCCACUCGAAAACCGUGACCUGUACGAAAAGUGCAGGA,36.5

# Same assay, conditions: Eterna round: R107; input ligand: theophylline 20 uM
row,Sequence,apparent KD of MS2 coat protein [nM]
1,UGGUGCCCUGUAUACAUUGUAAUCCUAAUGCGAGGACCGGUACGGCCGCCACUCGUUGCGGAACAUGAGGAUCACCCAUGUAACA [theeternabot_exclusion_MS2_Trp_A_21],26.2
2,UACUUGCUGACGGCCGCCACUAGAACAUGAGGAUCACCCAUGUAAGUGGUUGGUUCAUGGGUGACUAGGACCGGGUCAGCAAGAU [(Trp1)-(Ms2)-(T)'-(M)'-(Trp2)_Design19],47.9
3,GGUGGUGGGACGGAUACCAGCCACCGCGGCAACGCAACAUGAGGAUCACCCAUGUUGGGUGGCCCUUGGCAGCUGUCCUGCGGCG [#1 Same State - Theophylline B Attempt #25 (HarryS)],18.5
4,CAUGAAGUAACUGAUACCAGUGUACUGACAUGAGGAUCACCCAUGUUGGGUUUUGUUGUACACCCUUGGCAGCAGAAUCUUUAUG [AstrosExyTheB#4],70.8
5,AGAUUCGACACGGCCGCCACUCGUGCCGGAUUACCGAGUGUCGAACAUGAGGAUCACCCAUGUACGAGGACCGGGUGUUGAGUCU [XTryp B #17],53.9
6,GAGUCCGCGGCGGCCGCCACUCGCGAUAUAACAUGAUAUCAGGACAUGAGGAUCACCCAUGUCACGAGGACCGGGCCGAUCCUCA [Same State Typptophan B GF 5],49.2
7,CUGCCAUGCAGAGAUACCAGUGAGCUCAUAACAUGAGGAUCACCCAUGUACGCCGCAGAUCACCCUUGGCAGCUCUGCAUGGCAG [!#*@)],11.5
8,CAGCCUGGUUGGUAAAUCCCUCAUCGUGAUACCAGUCGAGUGAUCGACCCUUGGCAGCACAUGAGGAUCACCCAUGUGCUCGUAU [Diorqu],31.1
9,UAUACAUGAGGAUCACCCAUGUACCAUGAAGGAGCGCAGAAAUCUGCAGGUAGGUCGCAUGGGUUAUGACCUCGGCAUAAUAACG [Enreusus],46.9
10,GUUGUAUACUCGGCCGCCACUGAGAGAGUCAUGUAAACAUGAGGAUCACCCAUGUAAUAUAUAUACAGGACCGGGAGUAUGGUAA [4.F],16.2
11,GGUGGUGUGACGGAUACCAGCCACCGCGGCAACGCAACAUGAGGAUCACCCAUGUUGGGUGGCCCUUGGCAGCUGUCGUGCGGCG [#1 Same State - Theophylline B Attempt #24 (HarryS)],91.2
12,GCCGCGGCCGCGAUACACAUGGGUAUGUAACGAGGACCGGUACGGCCGCCACUCGAGAUAAUGUACAUGAGGAUCACCCAUGUAC [Exclusion Tryp A GF12],15.1
13,UGUAUGUGAAGUGAUACCAGUCCAUAAACUGGAACAUGAGGAUCACCCAUGUAAUGGGUGGACCCUUGGCAGCACUUCUCAUACU [First try],468
14,AGAUCUUUCGAAAGAAGGAUAAUGGCUGAUACCAGAGACGAAAGUCUCCCUUGGCAGCAGUGCCAACAUGAGGAUCACCCAUGUA [Theophylline A 14],164
